Reference: patent US12099068B2, “Biomarkers for graft-versus-host disease” (Incyte Corporation, priority 2018, dated 2024)

System: plasma proteins
Assay: Plasma proteins modulated between baseline and day 28 in responders (CR, VGPR, PR; n = 19), Example 6 (Table 13)
Assay type: in vivo, human
Conditions: plasma protein (OLINK NPX); responders (CR, VGPR, PR; n = 19); itacitinib 200 mg or 300 mg QD with corticosteroids; day 28 vs baseline
Summary of the method: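 Plasma at baseline/screening and day 28 profiled for >1000 proteins by OLINK proximity extension assay, reported as NPX (log2). Steroid-naive and steroid-refractory patients pooled. Paired and unpaired t tests, ANOVA and Pearson correlation applied; significance at P<0.05.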

B1: FES (protein, UniProt P07332 1-822, looked up)
Tyrosine-protein kinase …: MGFSSELCSPQGHGVLQQMQEAELRLLEGMRKWMAQRVKSDREYAGLLHHMSLQDSGGQSRAISPDSPISQSWAEITSQTEGLSRLLRQHAEDLNSGPLSKLSLLIRERQQLRKTYSEQWQQLQQELTKTHSQDIEKLKSQYRALARDSAQAKRKYQEASKDKDRDKAKDKYVRSLWKLFAHHNRYVLGVRAAQLHHQHHHQLLLPGLLRSLQDLHEEMACILKEILQEYLEISSLVQDEVVAIHREMAAAAARIQPEAEYQGFLRQYGSAPDVPPCVTFDESLLEEGEPLEPGELQLNELTVESVQHTLTSVTDELAVATEMVFRRQEMVTQLQQELRNEEENTHPRERVQLLGKRQVLQEALQGLQVALCSQAKLQAQQELLQTKLEHLGPGEPPPVLLLQDDRHSTSSSEQEREGGRTPTLEILKSHISGIFRPKFSLPPPLQLIPEVQKPLHEQLWYHGAIPRAEVAELLVHSGDFLVRESQGKQEYVLSVLWDGLPRHFIIQSLDNLYRLEGEGFPSIPLLIDHLLSTQQPLTKKSGVVLHRAVPKDKWVLNHEDLVLGEQIGRGNFGEVFSGRLRADNTLVAVKSCRETLPPDLKAKFLQEARILKQYSHPNIVRLIGVCTQKQPIYIVMELVQGGDFLTFLRTEGARLRVKTLLQMVGDAAAGMEYLESKCCIHRDLAARNCLVTEKNVLKISDFGMSREEADGVYAASGGLRQVPVKWTAPEALNYGRYSSESDVWSFGILLWETFSLGASPYPNLSNQQTREFVEKGGRLPCPELCPDAVFRLMEQCWAYEPGQRPSFSTIYQELQSIRKRHR
Question: How did the “Fold Change, Decreased Expression from Baseline to Day 28” value (“Fold Change, Decreased Expression” below) turn out when B1 was run?
Answer: −1.4934

B2: CD79B (protein, UniProt P40259 29-229, looked up)
B-cell antigen receptor …: ARSEDRYRNPKGSACSRIWQSPRFIARKRGFTVKMHCYMNSASGNVSWLWKQEMDENPQQLKLEKGRMEESQNESLATLTIQGIRFEDNGIYFCQQKCNNTSEVYQGCGTELRVMGFSTLAQLKQRNTLKDGIIMIQTLLIILFIIVPIFLLLDKDDSKAGMEEDHTYEGLDIDQTATYEDIVTLRTGEVKWSVGEHPGQE
Question: With B2 as the molecule, how does the “Fold Change, Decreased Expression” value read?
Answer: −1.2372

B3: TRANCE (protein, UniProt O14788 140-317, looked up)
Tumor necrosis factor ligand …: IRAEKAMVDGSWLDLAKRSKLEAQPFAHLTINATDIPSGSHKVSLSSWYHDRGWAKISNMTFSNGKLIVNQDGFYYLYANICFRHHETSGDLATEYLQLMVYVTKTSIKIPSSHTLMKGGSTKYWSGNSEFHFYSINVGGFFKLRSGEEISIEVSNPSLLDPDQDATYFGAFKVRDID
Question: B3 was tested. Which “Fold Change, Decreased Expression” value did it give?
Answer: −1.4034

B4: PLIN1 (protein, UniProt O60240 1-522, looked up)
Perilipin-1: MAVNKGLTLLDGDLPEQENVLQRVLQLPVVSGTCECFQKTYTSTKEAHPLVASVCNAYEKGVQSASSLAAWSMEPVVRRLSTQFTAANELACRGLDHLEEKIPALQYPPEKIASELKDTISTRLRSARNSISVPIASTSDKVLGAALAGCELAWGVARDTAEFAANTRAGRLASGGADLALGSIEKVVEYLLPPDKEESAPAPGHQQAQKSPKAKPSLLSRVGALTNTLSRYTVQTMARALEQGHTVAMWIPGVVPLSSLAQWGASVAMQAVSRRRSEVRVPWLHSLAAAQEEDHEDQTDTEGEDTEEEEELETEENKFSEVAALPGPRGLLGGVAHTLQKTLQTTISAVTWAPAAVLGMAGRVLHLTPAPAVSSTKGRAMSLSDALKGVTDNVVDTVVHYVPLPRLSLMEPESEFRDIDNPPAEVERREAERRASGAPSAGPEPAPRLAQPRRSLRSAQSPGAPPGPGLEDEVATPAAPRPGFPAVPREKPKRRVSDSFFRPSVMEPILGRTHYSQLRKKS
Question: How did the “Fold Change, Increased Expression from Baseline to Day 28” value turn out when B4 was run?
Answer: 2.4338

B5: ARG1 (protein, UniProt P05089 1-322, looked up)
Arginase-1: MSAKSRTIGIIGAPFSKGQPRGGVEEGPTVLRKAGLLEKLKEQECDVKDYGDLPFADIPNDSPFQIVKNPRSVGKASEQLAGKVAEVKKNGRISLVLGGDHSLAIGSISGHARVHPDLGVIWVDAHTDINTPLTTTSGNLHGQPVSFLLKELKGKIPDVPGFSWVTPCISAKDIVYIGLRDVDPGEHYILKTLGIKYFSMTEVDRLGIGKVMEETLSYLLGRKKRPIHLSFDVDGLDPSFTPATGTPVVGGLTYREGLYITEEIYKTGLLSGLDIMEVNPSLGKTPEEVTRTVNTAVAITLACFGLAREGNHKPIDYLNPPK
Question: Which “Fold Change, Decreased Expression” value does the source give for B5 here?
Answer: −1.3036

B6: PCDH17 (protein, UniProt O14917 18-1159, looked up)
Protocadherin-17: LKNLNYSVPEEQGAGTVIGNIGRDARLQPGLPPAERGGGGRSKSGSYRVLENSAPHLLDVDADSGLLYTKQRIDRESLCRHNAKCQLSLEVFANDKEICMIKVEIQDINDNAPSFSSDQIEMDISENAAPGTRFPLTSAHDPDAGENGLRTYLLTRDDHGLFGLDVKSRGDGTKFPELVIQKALDREQQNHHTLVLTALDGGEPPRSATVQINVKVIDSNDNSPVFEAPSYLVELPENAPLGTVVIDLNATDADEGPNGEVLYSFSSYVPDRVRELFSIDPKTGLIRVKGNLDYEENGMLEIDVQARDLGPNPIPAHCKVTVKLIDRNDNAPSIGFVSVRQGALSEAAPPGTVIALVRVTDRDSGKNGQLQCRVLGGGGTGGGGGLGGPGGSVPFKLEENYDNFYTVVTDRPLDRETQDEYNVTIVARDGGSPPLNSTKSFAIKILDENDNPPRFTKGLYVLQVHENNIPGEYLGSVLAQDPDLGQNGTVSYSILPSHIGDVSIYTYVSVNPTNGAIYALRSFNFEQTKAFEFKVLAKDSGAPAHLESNATVRVTVLDVNDNAPVIVLPTLQNDTAELQVPRNAGLGYLVSTVRALDSDFGESGRLTYEIVDGNDDHLFEIDPSSGEIRTLHPFWEDVTPVVELVVKVTDHGKPTLSAVAKLIIRSVSGSLPEGVPRVNGEQHHWDMSLPLIVTLSTISIILLAAMITIAVKCKRENKEIRTYNCRIAEYSHPQLGGGKGKKKKINKNDIMLVQSEVEERNAMNVMNVVSSPSLATSPMYFDYQTRLPLSSPRSEVMYLKPASNNLTVPQGHAGCHTSFTGQGTNASETPATRMSIIQTDNFPAEPNYMGSRQQFVQSSSTFKDPERASLRDSGHGDSDQADSDQDTNKGSCCDMSVREALKMKTTSTKSQPLEQEPEECVNCTDECRVLGHSDRCWMPQFPAANQAENADYRTNLFVPTVEANVETETYETVNPTGKKTFCTFGKDKREHTILIANVKPYLKAKRALSPLLQEVPSASSSPTKACIEPCTSTKGSLDGCEAKPGALAEASSQYLPTDSQYLSPSKQPRDPPFMASDQMARVFADVHSRASRDSSEMGAVLEQLDHPNRDLGRESVDAEEVVREIDKLLQDCRGNDPVAVRK
Question: For B6, which “Fold Change, Decreased Expression” value is on record?
Answer: −1.232

B7: C1QTNF1 (protein, UniProt Q9BXJ1 26-281, looked up)
Complement C1q tumor necrosis …: RVPHVQGEQQEWEGTEELPSPPDHAERAEEQHEKYRPSQDQGLPASRCLRCCDPGTSMYPATAVPQINITILKGEKGDRGDRGLQGKYGKTGSAGARGHTGPKGQKGSMGAPGERCKSHYAAFSVGRKKPMHSNHYYQTVIFDTEFVNLYDHFNMFTGKFYCYVPGLYFFSLNVHTWNQKETYLHIMKNEEEVVILFAQVGDRSIMQSQSLMLELREQDQVWVRLYKGERENAIFSEELDTYITFSGYLVKHATEP
Question: For B7, which “Fold Change, Decreased Expression” value is on record?
Answer: −1.2979

B8: CLM-6 (protein, UniProt Q08708 21-224, looked up)
CMRF35-like molecule 6: GYFPLSHPMTVAGPVGGSLSVQCRYEKEHRTLNKFWCRPPQILRCDKIVETKGSAGKRNGRVSIRDSPANLSFTVTLENLTEEDAGTYWCGVDTPWLRDFHDPIVEVEVSVFPAGTTTASSPQSSMGTSGPPTKLPVHTWPSVTRKDSPEPSPHPGSLFSNVRFLLLVLLELPLLLSMLGAVLWVNRPQRSSRSRQNWPKGENQ
Question: B8 was tested. Which “Fold Change, Decreased Expression” value did it give?
Answer: −1.1356

B9: CKAP4 (protein, UniProt Q07065 1-602, looked up)
Cytoskeleton-associated …: MPSAKQRGSKGGHGAASPSEKGAHPSGGADDVAKKPPPAPQQPPPPPAPHPQQHPQQHPQNQAHGKGGHRGGGGGGGKSSSSSSASAAAAAAAASSSASCSRRLGRALNFLFYLALVAAAAFSGWCVHHVLEEVQQVRRSHQDFSRQREELGQGLQGVEQKVQSLQATFGTFESILRSSQHKQDLTEKAVKQGESEVSRISEVLQKLQNEILKDLSDGIHVVKDARERDFTSLENTVEERLTELTKSINDNIAIFTEVQKRSQKEINDMKAKVASLEESEGNKQDLKALKEAVKEIQTSAKSREWDMEALRSTLQTMESDIYTEVRELVSLKQEQQAFKEAADTERLALQALTEKLLRSEESVSRLPEEIRRLEEELRQLKSDSHGPKEDGGFRHSEAFEALQQKSQGLDSRLQHVEDGVLSMQVASARQTESLESLLSKSQEHEQRLAALQGRLEGLGSSEADQDGLASTVRSLGETQLVLYGDVEELKRSVGELPSTVESLQKVQEQVHTLLSQDQAQAARLPPQDFLDRLSSLDNLKASVSQVEADLKMLRTAVDSLVAYSVKIETNENNLESAKGLLDDLRNDLDRLFVKVEKIHEKV
Question: How did the “Fold Change, Decreased Expression” value turn out when B9 was run?
Answer: −1.1904

B10: PGLYRP1 (protein, UniProt O75594 22-196, looked up)
Peptidoglycan recognition …: QETEDPACCSPIVPRNEWKALASECAQHLSLPLRYVVVSHTAGSSCNTPASCQQQARNVQHYHMKTLGWCDVGYNFLIGEDGLVYEGRGWNFTGAHSGHLWNPMSIGISFMGNYMDRVPTPQAIRAAQGLLACGVAQGALRSNYVLKGHRDVQRTLSPGNQLYHLIQNWPHYRSP
Question: With B10 as the molecule, how does the “Fold Change, Decreased Expression” value read?
Answer: −1.6181

B11: CLEC10A (protein, UniProt Q8IUN9 1-316, looked up)
C-type lectin domain family …: MTRTYENFQYLENKVKVQGFKNGPLPLQSLLQRLCSGPCHLLLSLGLGLLLLVIICVVGFQNSKFQRDLVTLRTDFSNFTSNTVAEIQALTSQGSSLEETIASLKAEVEGFKQERQAGVSELQEHTTQKAHLGHCPHCPSVCVPVHSEMLLRVQQLVQDLKKLTCQVATLNNNASTEGTCCPVNWVEHQDSCYWFSHSGMSWAEAEKYCQLKNAHLVVINSREEQNFVQKYLGSAYTWMGLSDPEGAWKWVDGTDYATGFQNWKPGQPDDWQGHGLGGGEDCAHFHPDGRWNDDVCQRPYHWVCEAGLGQTSQESH
Question: Which “Fold Change, Decreased Expression” value does the source give for B11 here?
Answer: −1.274

B12: SPON2 (protein, UniProt Q9BUD6 27-331, looked up)
Spondin-2: QPLGGESICSARALAKYSITFTGKWSQTAFPKQYPLFRPPAQWSSLLGAAHSSDYSMWRKNQYVSNGLRDFAERGEAWALMKEIEAAGEALQSVHAVFSAPAVPSGTGQTSAELEVQRRHSLVSFVVRIVPSPDWFVGVDSLDLCDGDRWREQAALDLYPYDAGTDSGFTFSSPNFATIPQDTVTEITSSSPSHPANSFYYPRLKALPPIARVTLVRLRQSPRAFIPPAPVLPSRDNEIVDSASVPETPLDCEVSLWSSWGLCGGHCGRLGTKSRTRYVRVQPANNGSPCPELEEEAECVPDNCV
Question: Which “Fold Change, Increased Expression from Baseline to Day 28” value does the source give for B12 here?
Answer: 1.095
